Results on two substances are retold here after publication PMC6150732.

In this test the target is encapsulin from Brevibacterium linens (Brevibacterium linens). In words: cryo-EM structure.

As for “dye-decolorizing peroxidase (DyP) from Brevibacterium linens (enzyme)”, the stoichiometry N (DyP hexamer per encapsulin particle) was determined as 1. In the case of “encapsulin from Brevibacterium linens (natural protein)”, the stoichiometry N (subunits per particle) came out at 60.
